The data set is described as follows: protein stability index of a GFP-peptide fusion (yeast GPS) (PSI 1-4); higher = more stable; sorted into four equal gates, so the index is relative within each strain. The essentials: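 Tiled yeast protein peptides of 17 residues were each joined downstream of GFP, on plasmids that also express Cherry. The pooled library was maintained in yeast, and mid-log cultures in leucine-free medium were sorted into four equal gates on the GFP/Cherry ratio. Plasmids from every gate were amplified by PCR and sequenced on Illumina, with barcodes linking reads to strains. The protein stability index of a peptide is its gate-number-weighted read frequency summed over the gates.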

± gives the uncertainty stated by the source.

In the case of ELEEQESESERKYDLFQ [SMC2], the protein stability index is, setting by setting: (doa10∆) 3.32 ± 0.16; (pdr5∆) 3.28 ± 0.11; (san1∆) 3.31 ± 0.068; (ubr1∆) 3.29 ± 0.094.
In the same order, the values of SMKANTSTNPNGLGTSH [ARP7] are 3.22 ± 0.093, 3.41 ± 0.098, 2.95 ± 0.078 and 3.27 ± 0.075.
Where the note is “pdr5∆”, FDINRSHKEGRRVPKEL [SEC65] came in with a protein stability index of 2.52 ± 0.24.
SLSDEVMRNEIRITSLQ [SIR4]: the protein stability index by setting is: (doa10∆) 2.92 ± 0.065; (pdr5∆) 2.48 ± 0.064; (san1∆) 2.81 ± 0.067; (ubr1∆) 2.52 ± 0.077.
The like results for HLGKGTMTMDVFNDAHV [RPN1] were, in that order, 2.96 ± 0.073, 2.98 ± 0.084, 2.06 ± 0.12 and 2.87 ± 0.081.
The like results for PQQPMVKTKTIELIDYD [RET1] were, in that order, 2.89 ± 0.14, 3.18 ± 0.2, 2.94 ± 0.075 and 2.97 ± 0.058.
The like results for NKLGNDPSLNLKLLAKS [BRR2] were, in that order, 2.64 ± 0.062, 2.56 ± 0.079, 2.86 ± 0.07 and 2.55 ± 0.096.
Take RFMRFLADRDEFIQDSA [ECM29]: the protein stability index reads like this: (doa10∆) 1.87 ± 0.052; (pdr5∆) 1.23 ± 0.042; (san1∆) 1.21 ± 0.094; (ubr1∆) 2.26 ± 0.029.
Take GTYIQERNPTQRPQRRY [RPS10A]: the protein stability index was found to be 3.01 ± 0.051 (doa10∆), 3.1 ± 0.041 (pdr5∆), 3.07 ± 0.034 (san1∆) and 3.14 ± 0.032 (ubr1∆).
The like results for LYQLVDIRDSSCQGNVI [YMR129W/POM152] were, in that order, 3.02 ± 0.1, 3.12 ± 0.089, 2.86 ± 0.058 and 2.96 ± 0.048.
Consider IVNGQTFSYVDSSLQPE [YMR129W/POM152], for which the protein stability index came to 2.47 ± 0.05 (doa10∆), 2.67 ± 0.059 (pdr5∆), 2.62 ± 0.052 (san1∆) and 2.06 ± 0.042 (ubr1∆).
In the same order, the values of GALDVEGLCIVAGSKCW [RRP45] are 2.83 ± 0.12, 2.96 ± 0.11, 2.87 ± 0.077 and 2.9 ± 0.13.
The like results for EKENRFEIVDREKNSLE [SMC4] were, in that order, 2.63 ± 0.09, 2.93 ± 0.11, 3.1 ± 0.1 and 3.3 ± 0.085.
As to MAILLLYNDADVLTLEN [CDC53], the protein stability index was found to be 1.58 ± 0.09 (doa10∆), 1.93 ± 0.063 (pdr5∆), 2.5 ± 0.084 (san1∆) and 2.75 ± 0.06 (ubr1∆).
In the same order, the values of AKKNNFIEDLAPEQQVQ [UBP6] are 2.81 ± 0.073, 3.15 ± 0.08, 2.99 ± 0.08 and 3.06 ± 0.065.
The like results for IDYLQRNDKTLELMDSK [POP1] were, in that order, 3.06 ± 0.096, 3.19 ± 0.14, 2.64 ± 0.25 and 3.24 ± 0.14.
On to LDALVDCENFFNYVQEC [YJL039C/NUP192], for which the protein stability index by setting is: (doa10∆) 3.37 ± 0.12; (pdr5∆) 3.43 ± 0.084; (san1∆) 3.44 ± 0.079; (ubr1∆) 3.41 ± 0.065.
The like results for EHFSDEETYEEKPQFKD [RPO26] were, in that order, 3.51 ± 0.1, 3.35 ± 0.2, 3.25 ± 0.15 and 3.34 ± 0.1.
In the same order, the values of TGDADEPELRVLSTEEI [RPO21] are 3.59 ± 0.13, 3.25 ± 0.099, 3.49 ± 0.064 and 3.43 ± 0.06.
Turning to NDPSAEVRRAAMLNLIN [YCG1], the protein stability index amounted to 3.42 ± 0.21 (pdr5∆) and 2.72 ± 0.26 (san1∆).
With QTKENKRCVGVILGDAN [RPN8], the protein stability index reads like this: (doa10∆) 2.89 ± 0.053; (pdr5∆) 2.9 ± 0.05; (san1∆) 2.74 ± 0.055; (ubr1∆) 2.73 ± 0.04.
Sequence MSTDSIVKASNWRLVEV [RPL14A] came in with a protein stability index (doa10∆) of 2.82 ± 0.1, a protein stability index (pdr5∆) of 1.44 ± 0.13 and a protein stability index (ubr1∆) of 1.71 ± 0.087.
For the sequence PSTNKKLSISNAASQQP [GAL11], the protein stability index (doa10∆) was found to be 2.48 ± 0.084, the protein stability index (pdr5∆) came to 2.8 ± 0.066, the protein stability index (san1∆) came out at 2.56 ± 0.072 and the protein stability index (ubr1∆) was found to be 2.74 ± 0.075.
In the same order, the values of SKRYIPSVNDFVIGVII [RRP40] are 2.4 ± 0.054, 2.66 ± 0.056, 2.17 ± 0.078 and 2.73 ± 0.054.
The like results for HQQQQQQQQQQQQQQQQ [SNF5] were, in that order, 2.78 ± 0.056, 2.88 ± 0.049, 2.88 ± 0.056 and 2.93 ± 0.055.
In the same order, the values of FTPKLIYDFITLFSSIE [ECM29] are 2.06 ± 0.073, 2.1 ± 0.056, 2.17 ± 0.11 and 2.38 ± 0.053.
With HTIFSDVCKTRFNHLVT [YML031W/NDC1], the protein stability index runs as follows: (doa10∆) 2.27 ± 0.045; (pdr5∆) 2.09 ± 0.044; (san1∆) 2.15 ± 0.051; (ubr1∆) 2.04 ± 0.034.

Values taken from the supplement of paper PMC9732359.
